Values belong to the molecule of their own block, whether it stands above or below them.
Key:
[1] = molecular target: Flt-1 on primary mouse liver sinusoidal endothelial cells (LSEC) (mouse) (UniProt P35969); assay: cell-based or functional assay
KDR [2] = molecular target: T1, KDR (UniProt P35968 20-764, limits assumed); assay: soluble radio-immuno receptor-binding assay (RIA); target KDR
T1 construct: also called VEGFR-2; KDR receptor

Flt-1 = molecular target: T2, Flt-1 (UniProt P17948 27-758, limits assumed); assay: soluble radio-immuno receptor-binding assay (RIA); target Flt-1
T2 construct: also called VEGFR-1; Flt-1 receptor
T2 sequence (P17948 27-758 limits assumed): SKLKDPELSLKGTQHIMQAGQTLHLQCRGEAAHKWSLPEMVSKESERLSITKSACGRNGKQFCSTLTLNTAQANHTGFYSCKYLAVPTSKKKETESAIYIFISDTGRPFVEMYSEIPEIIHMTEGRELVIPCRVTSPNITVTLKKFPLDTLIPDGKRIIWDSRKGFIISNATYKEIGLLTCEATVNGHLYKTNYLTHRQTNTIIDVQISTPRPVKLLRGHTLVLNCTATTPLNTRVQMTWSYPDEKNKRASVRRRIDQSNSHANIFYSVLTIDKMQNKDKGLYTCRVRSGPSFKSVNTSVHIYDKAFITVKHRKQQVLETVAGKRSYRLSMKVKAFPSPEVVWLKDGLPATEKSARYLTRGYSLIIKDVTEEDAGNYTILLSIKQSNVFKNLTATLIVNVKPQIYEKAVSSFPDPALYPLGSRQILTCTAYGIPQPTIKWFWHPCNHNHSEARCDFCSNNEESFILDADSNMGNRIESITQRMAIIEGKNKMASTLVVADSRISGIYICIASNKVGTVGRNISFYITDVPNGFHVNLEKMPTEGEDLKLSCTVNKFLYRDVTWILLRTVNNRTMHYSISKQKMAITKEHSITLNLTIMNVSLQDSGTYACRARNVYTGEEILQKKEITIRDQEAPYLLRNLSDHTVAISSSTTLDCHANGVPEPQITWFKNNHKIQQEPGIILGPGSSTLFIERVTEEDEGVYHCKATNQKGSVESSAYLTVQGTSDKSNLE

[3] = molecular target: T3, Flt-1 on primary mouse liver sinusoidal endothelial cells (LSEC) (mouse, UniProt P35969 23-1333); assay: cell-based or functional assay
T3 sequence (looked up): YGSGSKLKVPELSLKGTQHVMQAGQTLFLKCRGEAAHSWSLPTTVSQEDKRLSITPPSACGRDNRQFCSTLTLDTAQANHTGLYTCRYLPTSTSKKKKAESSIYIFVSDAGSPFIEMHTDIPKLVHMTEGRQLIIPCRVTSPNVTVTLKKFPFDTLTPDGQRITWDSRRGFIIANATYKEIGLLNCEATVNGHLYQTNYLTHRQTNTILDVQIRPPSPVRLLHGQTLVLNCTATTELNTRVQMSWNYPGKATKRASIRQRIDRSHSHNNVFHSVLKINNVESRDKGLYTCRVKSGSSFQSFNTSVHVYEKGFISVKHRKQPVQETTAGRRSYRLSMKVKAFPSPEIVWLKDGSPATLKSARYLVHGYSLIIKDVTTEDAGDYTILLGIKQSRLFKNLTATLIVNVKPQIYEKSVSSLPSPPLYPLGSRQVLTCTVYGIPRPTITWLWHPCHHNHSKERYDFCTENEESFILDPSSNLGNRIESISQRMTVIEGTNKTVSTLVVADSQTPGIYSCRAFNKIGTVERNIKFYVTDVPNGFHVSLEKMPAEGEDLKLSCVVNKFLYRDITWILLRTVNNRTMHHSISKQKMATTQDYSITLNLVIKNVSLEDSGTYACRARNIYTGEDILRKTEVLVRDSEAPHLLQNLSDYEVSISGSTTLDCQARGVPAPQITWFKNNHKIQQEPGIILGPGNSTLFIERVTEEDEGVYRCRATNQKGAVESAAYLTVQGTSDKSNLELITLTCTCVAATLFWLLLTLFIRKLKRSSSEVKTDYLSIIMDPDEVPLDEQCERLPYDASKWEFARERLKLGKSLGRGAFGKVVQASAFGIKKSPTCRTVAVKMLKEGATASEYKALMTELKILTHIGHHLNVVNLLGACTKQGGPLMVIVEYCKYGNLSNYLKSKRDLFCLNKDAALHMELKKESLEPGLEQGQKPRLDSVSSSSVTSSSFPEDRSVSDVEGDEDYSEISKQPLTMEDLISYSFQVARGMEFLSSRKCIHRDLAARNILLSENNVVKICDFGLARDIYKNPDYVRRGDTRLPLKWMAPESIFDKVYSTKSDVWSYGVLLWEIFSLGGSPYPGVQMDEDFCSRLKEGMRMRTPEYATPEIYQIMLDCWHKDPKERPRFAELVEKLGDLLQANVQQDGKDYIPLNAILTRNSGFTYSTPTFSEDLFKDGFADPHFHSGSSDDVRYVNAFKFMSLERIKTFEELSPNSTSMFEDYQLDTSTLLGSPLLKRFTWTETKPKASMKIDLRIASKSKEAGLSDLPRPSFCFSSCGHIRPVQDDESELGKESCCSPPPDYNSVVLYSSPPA

KDR [4] = molecular target: T1, KDR; assay: soluble radio-immuno receptor-binding assay (RIA)

T1 sequence (P35968 20-764 limits assumed): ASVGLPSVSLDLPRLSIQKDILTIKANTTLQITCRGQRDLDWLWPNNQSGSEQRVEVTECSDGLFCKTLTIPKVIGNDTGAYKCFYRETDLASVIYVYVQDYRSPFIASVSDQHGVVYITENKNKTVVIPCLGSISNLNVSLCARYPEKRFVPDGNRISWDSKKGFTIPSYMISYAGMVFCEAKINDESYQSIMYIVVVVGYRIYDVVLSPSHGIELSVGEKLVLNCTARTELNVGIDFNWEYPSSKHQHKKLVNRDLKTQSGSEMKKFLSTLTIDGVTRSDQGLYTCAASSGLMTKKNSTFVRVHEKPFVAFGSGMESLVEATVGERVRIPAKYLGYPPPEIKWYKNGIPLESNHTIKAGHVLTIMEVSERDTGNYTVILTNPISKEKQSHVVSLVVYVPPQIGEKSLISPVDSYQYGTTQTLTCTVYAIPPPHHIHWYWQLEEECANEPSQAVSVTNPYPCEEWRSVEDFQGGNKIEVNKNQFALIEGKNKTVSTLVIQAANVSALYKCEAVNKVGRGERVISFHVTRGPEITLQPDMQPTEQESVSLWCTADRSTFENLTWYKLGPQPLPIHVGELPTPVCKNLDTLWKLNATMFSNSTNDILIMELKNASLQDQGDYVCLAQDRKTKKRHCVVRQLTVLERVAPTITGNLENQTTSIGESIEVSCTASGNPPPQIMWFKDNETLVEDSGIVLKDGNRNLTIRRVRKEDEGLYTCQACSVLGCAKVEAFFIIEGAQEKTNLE

induction of HGF mRNA in LSEC (Taqman RT-PCR, 10 ng/ml, 24 h) [1]: 5.5 fold | induction of IL-6 mRNA in LSEC (Taqman RT-PCR, 10 ng/ml, 24 h) [1]: 3.3 fold
Molecule: recombinant human VEGF (from UniProt P15692 181-395) (ligand)

Kd (KDR [2]): 0.5 nM | Kd (Flt-1): 0.4 nM
B1: native VEGF(8-109) (ligand)
chain: GQNHHEVVKFMDVYQRSYCHPIETLVDIFQEYPDEIEYIFKPSCVPLMRCGGCCNDEGLECVPTEESNITMQIMRIKPHQGQHIGEMSFLQHNKCECRPKKD
notes: If that entry includes the signal peptide, 8-109 must be shifted; also called the native protein

induction of HGF mRNA in LSEC (Taqman RT-PCR, 10 ng/ml, 24 h) [3]: 5.5 fold | induction of IL-6 mRNA in LSEC (Taqman RT-PCR, 10 ng/ml, 24 h) [3]: 3.3 fold | fold reduction of KDR-binding affinity against native VEGF(8-109) (KDR [4]): ≥ 470 fold
B2: Flt-sel variant I43A/I46A/Q79A/I83A (ligand)
chain: APMAEGGGQNHHEVVKFMDVYQRSYCHPIETLVDIFQEYPDEAEYAFKPSCVPLMRCGGCCNDEGLECVPTEESNITMAIMRAKPHQGQHIGEMSFLQHNKCECRPKKDRARQENPCGPCSERRKHLFVQDPQTCKCSCKNTDSRCKARQLELNERTCRCDKPRR
notes: VEGF variant with four alanine substitutions, numbered on native VEGF; also called Fit-sel; FIt-sel

Source: patent US7700571 (Genentech, dated 2010)
